T1: Abp1 SH3 (ABP1_YEAST), P15891
T1 chain: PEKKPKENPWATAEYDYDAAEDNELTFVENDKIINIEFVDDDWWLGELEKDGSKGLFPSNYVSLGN

B1: YNL278W 803-816 (peptide)
chain: RSRHEVPKRSPEKP
B2: YBL007C 612-625 (peptide)
chain: RSRLQEKELPPIKP
B3: YMR068W 271-284 (peptide)
chain: RSSITNPVFNPRKP
B4: YBR245C 789-801 (peptide)
chain: RSSTPSHPRMPKP
B5: YBL080C 12-25 (peptide)
chain: RTKAIHSHGAPFRP
B6: YMR241W 239-252 (peptide)
chain: RVEMQSKKEDPNRP
B7: YGL061C 212-224 (peptide)
chain: RVRKTHVPASKRP
B8: YIL074C 41-53 (peptide)
chain: RVSITKQPKALKP
B9: YDR176W 652-664 (peptide)
chain: RWINKIGPLFDKP
B10: YGL191W 8-20 (peptide)
chain: RYASSLPPNALKP
B11: YPL066W 175-187 (peptide)
chain: RYTYLPSPSYFRP
B12: YMR086W 669-681 (peptide)
chain: SAIPLGTPEKGKP
B13: YPR112C 621-633 (peptide)
chain: SAKEEENPVEVKP
B14: YDL025C 107-120 (peptide)
chain: SAKKAPIDYSPSRP
B15: YLR430W 1001-1014 (peptide)
chain: SANAKLHRTKPVKP
B16: YNL034W 543-555 (peptide)
chain: SAPQLTVPEPSKP
B17: YDL106C 66-79 (peptide)
chain: SASSNASDSGPQRP
B18: YOR098C 775-787 (peptide)
chain: SASSTPIPVLGKP
B19: YNR049C 146-159 (peptide)
chain: SATPRRASSRPTRP
B20: YKL097C 59-72 (peptide)
chain: SSSLPLPKLRPPRP
B21: YDL240W 56-69 (peptide)
chain: SSFTSQDSQKPLKP
B22: YDL142C 9-22 (peptide)
chain: SSSALLRRTIPKRP
B23: YOR205C 26-39 (peptide)
chain: SSSIKLQDQDPSKP
B24: YOR168W 585-598 (peptide)
chain: SDDYEELATIPYRP
B25: YBR026C 64-77 (peptide)
chain: SDINQLQGVYPSRP
B26: YPR182W 5-17 (peptide)
chain: SDISAMQPVNPKP
B27: YMR014W 341-353 (peptide)
chain: SDSEENEPRRKKP
B28: YML035C 237-249 (peptide)
chain: SDTKTVVPVTNKP
B29: YER169W 626-639 (peptide)
chain: SDTNDIKTPHPERP
B30: YKL077W 65-77 (peptide)
chain: SEKPEETPNPLKP
B31: YIL115C 491-503 (peptide)
chain: SEQDATDPASAKP
B32: YER032W 653-666 (peptide)
chain: SETKSVPSIEPFKP
B33: YKR002W 264-276 (peptide)
chain: SEWNWPQPVILKP
B34: YLR164W 23-36 (peptide)
chain: SFTIPFLPKIPQKP
B35: YOL008W 79-91 (peptide)
chain: SFVDKRNPVDNKP
B36: YBR118W 394-407 (peptide)
chain: SGDAALVKFVPSKP
B37: YKL185W 433-446 (peptide)
chain: SGKMRSRSSSPVRP
B38: YPR117W 1516-1529 (peptide)
chain: SGLDGILEDEPSRP
B39: YKL157W 770-782 (peptide)
chain: SGNKEAIPALIKP
B40: YMR231W 646-659 (peptide)
chain: SHEHEEPTYHPPKP
B41: YPR079W 40-53 (peptide)
chain: SHKQKRTLANPDKP
B42: YGR019W 2-15 (peptide)
chain: SISEQYYPEEPTKP
B43: YMR284W 586-598 (peptide)
chain: SIKEEKKPFDKKP
B44: YLR335W 355-367 (peptide)
chain: SIPSKNTPDASKP
B45: YJL147C 308-321 (peptide)
chain: SIQSKIMLESPKKP
B46: YER118C 2-14 (peptide)
chain: SISSKIRPTPRKP
B47: YHR209W 240-253 (peptide)
chain: SIYTSWARDNPSKP
B48: YPR117W 1308-1321 (peptide)
chain: SKAGDEERFLPNRP
B49: YJL036W 11-24 (peptide)
chain: SKAKDKARGNPEKP
B50: YDR538W 41-54 (peptide)
chain: SKEVTRASTSPPRP
B51: YGR154C 61-73 (peptide)
chain: SKGARFLPAPHRP
B52: YOR341W 710-722 (peptide)
chain: SKIVTLPPTIFKP
B53: YHR208W 26-39 (peptide)
chain: SKLKITRNPNPSKP
B54: YHR099W 1329-1341 (peptide)
chain: SKQFLLSPIFAKP
B55: YPL141C 761-773 (peptide)
chain: SKRKPSPPSQRRP
B56: YKL077W 80-92 (peptide)
chain: SLEHDGRPKTIKP
B57: YCR025C 79-91 (peptide)
chain: SLHWTGIPFLGKP
B58: YPR025C 204-217 (peptide)
chain: SLKFSLLNHHPYKP

Molecular target: T1, Abp1 SH3 (ABP1_YEAST), P15891
Assay: SPOT array

Row | Binder | normalised SPOT signal, Boehringer light units (BLU); mean over the file's lines of this peptide
1 | B1 | 76.3
2 | B2 | 88.5
3 | B3 | 527
4 | B4 | 1930
5 | B5 | 49.4
6 | B6 | 1200
7 | B7 | 78.6
8 | B8 | 244
9 | B9 | 287
10 | B10 | 219
11 | B11 | 276
12 | B12 | 105
13 | B13 | 63.3
14 | B14 | 0
15 | B15 | 138
16 | B16 | 52.2
17 | B17 | 172
18 | B18 | 100
19 | B19 | 88.9
20 | B20 | 5200

Row | Binder | normalised SPOT signal, Boehringer light units (BLU); mean over the file's lines of this peptide
21 | B21 | 113
22 | B22 | 253
23 | B23 | 46
24 | B24 | 45.7
25 | B25 | 98.7
26 | B26 | 124
27 | B27 | 93.2
28 | B28 | 28.6
29 | B29 | 114
30 | B30 | 85.4
31 | B31 | 49.3
32 | B32 | 62.5
33 | B33 | 54.4
34 | B34 | 22800
35 | B35 | 92.9
36 | B36 | 52.8
37 | B37 | 560
38 | B38 | 30.6
39 | B39 | 82.8
40 | B40 | 9.2

Row | Binder | normalised SPOT signal, Boehringer light units (BLU); mean over the file's lines of this peptide
41 | B41 | 164
42 | B42 | 60.4
43 | B43 | 92.3
44 | B44 | 64.2
45 | B45 | 289
46 | B46 | 15700
47 | B47 | 178
48 | B48 | 144
49 | B49 | 124
50 | B50 | 226
51 | B51 | 1020
52 | B52 | 159
53 | B53 | 115
54 | B54 | 169
55 | B55 | 6670
56 | B56 | 56.6
57 | B57 | 116
58 | B58 | 186
